# Results: US20150165025A1 (ONO PHARMACEUTICAL, published 2015)
# Positions count from the first letter of the chain named.
# T1: CTLA-4 fusion protein (R&D Biosystems) (human, UniProt P16410 37-162)
# T1 sequence (looked up): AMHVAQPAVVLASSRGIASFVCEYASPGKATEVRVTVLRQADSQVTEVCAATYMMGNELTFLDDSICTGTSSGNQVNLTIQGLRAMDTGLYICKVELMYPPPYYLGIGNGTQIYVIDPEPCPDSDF
# T2: ICOS fusion protein (R&D Biosystems) (human, UniProt Q9Y6W8 21-141)
# T2 sequence (looked up): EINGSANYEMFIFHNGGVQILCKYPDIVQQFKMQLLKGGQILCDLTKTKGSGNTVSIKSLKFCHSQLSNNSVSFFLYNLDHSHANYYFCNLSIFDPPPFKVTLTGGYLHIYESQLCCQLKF
# B1: anti-PD-1 human monoclonal antibody 17D8 (antibody, V domains shown)
# VH: QVQLVESGGDVVQPGGSLRLSCAASGVAFSNYGMHWVRQAPGKGLEWVAVIWYDGSNKYYADSVKGRFTISRDNSKNMLYLQMNSLRAEDTAMYYCARNDDYWGQGTLVTVSS
# VL: EIVLTQSPATLSLSPGERATLSCRASQSVSSYLAWYQQKPGQAPRLIIYDASNRATGIPARFSGSGSGTDFTLTISSLEPEDFAVYYCQQRSNWPLTFGGGTKVEIK
# notes: Fully human IgG with kappa light chain from a hybridoma (HuMab/KM mice)
# B2: anti-PD-1 human monoclonal antibody 4H1 (antibody, V domains shown)
# VH: QVYLVESGGGVVQPGRSLRLSCAASGFTFSNYGMHWVRQAPGKGLEWVALIWYDGSNKYYADSVKGRFTISRDNSKNTLYLQMTSLRVEDTAVYYCASNVDHWGQGTLVTVSS
# VL: B1 VL with I47L, R91S, L96R, G100Q
# notes: Fully human IgG with kappa light chain from a hybridoma
# B3: anti-PD-1 human monoclonal antibody 2D3 (antibody, V domains shown)
# VH: QVQLVESGGDVVQPGRSLRLSCAASGLTFTNYGFHWVRQAPGKGLEWVAVIWYDGSKKYYADSVKGRFTISRDNSKNTLYLQMNNLRAEDTAVYYCATGDDYWGQGTLVTVSS
# VL: B1 VL with I47L, A51T
# notes: as for B2
# B4: anti-PD-1 human monoclonal antibody 5C4 (antibody, V domains shown)
# VH: QVQLVESGGGVVQPGRSLRLDCKASGITFSNSGMHWVRQAPGKGLEWVAVIWYDGSKRYYADSVKGRFTISRDNSKNTLFLQMNSLRAEDTAVYYCATNDDYWGQGTLVTVSS
# VL: B1 VL with I47L, R91S, L96R, G100Q
# notes: Fully human IgG with kappa light chain from a hybridoma; also called 5C4-IgG1; 5C4-IgG4
# B5: anti-PD-1 human monoclonal antibody 7D3 (antibody, V domains shown)
# VH: B3 VH with D10G, A23T, A24T, L27I, T30S, N31S, I70L, N74D, N85S, A97V
# VL: B1 VL with I47L
# notes: as for B2
# B6: anti-PD-1 human monoclonal antibody 4A11 (antibody, V domains shown)
# VH: QLQLQESGPGLVKPSETLSLTCTVSGGSLSRSSFFWGWIRQPPGKGLEWIGSIYYSGSTYYNPSLKSRVTISVDTSKNQFSLKLSSVTAADTAVYYCVRDYDILTGDEDYWGQGTLVTVSS
# VL: DIQMTQSPSSLSASVGDRVSITCRASQGISSWLAWYQQKPEKAPKSLIYAASNLRSGVPSRFSGSGSGTDFTLTISSLQPEDFATYYCQQYYSYPRTFGQGTKVEIK
# notes: as for B2
# B7: anti-PD-1 human monoclonal antibody 5F4 (antibody, V domains shown)
# VH: B6 VH with T23S, F34Y, G51A, Y54F, S58E, Y61F, K77R, V98A
# VL: B6 VL with S20T, N53S, R55Q
# notes: as for B2
# Experiments:
# [1] = target: T1, CTLA-4 fusion protein (R&D Biosystems); assay: ELISA on CTLA-4 fusion protein, goat anti-human IgG (kappa) HRP
# Procedure: (§1) A comparison of the binding of anti-PD-1 antibodies to CD28 family members was performed by standard ELISA using four different CD28 family members to examine the specificity of binding for PD-1.
# (§2) Standard ELISA procedures were performed. The anti-PD-1 human monoclonal antibodies were added at a concentration of 20 μg/ml. Goat-anti-human IgG (kappa chain-specific) polyclonal antibody conjugated with horseradish peroxidase (HRP) was used as secondary antibody.
# [2] = target: T3, human PD-1 expressed at the cell surface (human, UniProt Q15116 25-288); assay: flow cytometry on CHO cells transfected with human PD-1, FITC-labeled anti-human IgG, MFI
# T3 construct: whole, on cells; also called hPD-1; CHO hPD-1 cells
# Procedure: (§3) Activated human T-cells, monkey peripheral blood mononuclear cells (PBMC), and CHO cells transfected with PD-1 were each tested for antibody binding. Human T cells and cynomolgous PBMC were activated by […] to induce PD-1 expression on T cells prior to binding with a human anti-PD-1 monoclonal antibody. […] The cells were washed and binding was detected with a FITC-labeled anti-human IgG Ab. Flow cytometric analyses were performed using a FACScan flow cytometry (Becton Dickinson, San Jose, Calif.).
# [3] = target: T4, cynomolgus monkey cell surface PD-1 (cynomolgus monkey, UniProt B0LAJ3 25-288); assay: flow cytometry on activated cynomolgus monkey PBMC, FITC-labeled anti-human IgG, MFI
# T4 construct: also called cynomolgous monkey PD-1
# Procedure: as §3
# [4] = target: T3, human PD-1 expressed at the cell surface; assay: flow cytometry on activated human T cells, FITC-labeled anti-human IgG, MFI
# Procedure: as §3
# [5] = target: T2, ICOS fusion protein (R&D Biosystems); assay: ELISA on ICOS fusion protein, goat anti-human IgG (kappa) HRP
# Procedure: as §1, §2
# [6] = target: T5, CD28 fusion protein (R&D Biosystems) (human, UniProt P10747 19-152); assay: ELISA on CD28 fusion protein, goat anti-human IgG (kappa) HRP
# Procedure: as §1, §2
# [7] = target: T6, purified recombinant human PD-1 fusion protein (human, UniProt Q15116 25-170); assay: Biacore SPR; PD-1 fusion protein on CM5 chip, antibody at 267 nM
# T6 construct: extracellular domain; Made in CHO cells; amine-coupled to a CM5 chip for Biacore
# Procedure: Anti-PD-1 antibodies were characterized for affinities and binding kinetics by Biacore analysis (Biacore AB, Uppsala, Sweden). Purified recombinant human PD-1 fusion protein was covalently linked to a CM5 chip (carboxy methyl dextran coated chip) via primary amines, using standard amine coupling chemistry and kit provided by Biacore. Binding was measured by flowing the antibodies in HBS EP buffer (provided by Biacore AB) at a concentration of 267 nM at a low rate of 50 μl/min. The antigen-antibody association kinetics was followed for 3 minutes and the dissociation kinetics was followed for 7 minutes. The association and dissociation curves were fit to a 1:1 Langmuir binding model using BIAevaluation software (Biacore AB). To minimize the effects of avidity in the estimation of the binding constants, only the initial segment of data corresponding to association and dissociation phases were used for fitting.
# [8] = target: T3, human PD-1 expressed at the cell surface; assay: flow cytometry blocking assay on CHO/hPD-1 cells: antibody first, then FITC-labeled PD-L1 fusion protein as the blocked ligand, MFI
# Procedure: (§4) PD-1 expressing CHO cells were suspended in FACS buffer (PBS with 4% fetal calf serum). […] Flow cytometric analyses were performed using a FACScan flowcytometer (Becton Dickinson, San Jose, Calif.).
# [9] = target: T1, CTLA-4 fusion protein (R&D Biosystems); assay: standard ELISA on fusion proteins
# Procedure: as §1, §2
# [10] = target: T2, ICOS fusion protein (R&D Biosystems); assay: standard ELISA on fusion proteins
# Procedure: as §1, §2
# [11] = target: T5, CD28 fusion protein (R&D Biosystems); assay: standard ELISA on fusion proteins
# Procedure: as §1, §2
# [12] = target: T3, human PD-1 expressed at the cell surface; assay: flow cytometry blocking assay on CHO/PD-1 cells: antibody first, then FITC-labeled PD-L2 fusion protein as the blocked ligand, MFI
# Procedure: as §4
# T5 sequence (P10747 19-152): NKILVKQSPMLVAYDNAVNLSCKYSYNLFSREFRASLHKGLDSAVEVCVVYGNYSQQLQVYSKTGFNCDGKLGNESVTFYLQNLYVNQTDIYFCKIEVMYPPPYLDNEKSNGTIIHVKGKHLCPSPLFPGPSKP
# T6 sequence (Q15116 25-170): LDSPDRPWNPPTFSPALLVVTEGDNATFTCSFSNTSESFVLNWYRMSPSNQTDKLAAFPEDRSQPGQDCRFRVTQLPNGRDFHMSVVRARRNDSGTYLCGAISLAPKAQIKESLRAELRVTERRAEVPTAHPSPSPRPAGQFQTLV
# T3 sequence (Q15116 25-288): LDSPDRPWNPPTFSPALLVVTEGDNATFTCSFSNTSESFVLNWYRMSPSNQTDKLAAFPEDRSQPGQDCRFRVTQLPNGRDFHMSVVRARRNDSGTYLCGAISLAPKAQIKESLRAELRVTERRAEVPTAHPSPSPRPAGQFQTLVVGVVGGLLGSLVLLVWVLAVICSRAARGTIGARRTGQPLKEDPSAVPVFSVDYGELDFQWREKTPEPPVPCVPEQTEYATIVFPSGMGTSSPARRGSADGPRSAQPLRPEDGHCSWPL
# T4 sequence (B0LAJ3 entry or part of it limits assumed): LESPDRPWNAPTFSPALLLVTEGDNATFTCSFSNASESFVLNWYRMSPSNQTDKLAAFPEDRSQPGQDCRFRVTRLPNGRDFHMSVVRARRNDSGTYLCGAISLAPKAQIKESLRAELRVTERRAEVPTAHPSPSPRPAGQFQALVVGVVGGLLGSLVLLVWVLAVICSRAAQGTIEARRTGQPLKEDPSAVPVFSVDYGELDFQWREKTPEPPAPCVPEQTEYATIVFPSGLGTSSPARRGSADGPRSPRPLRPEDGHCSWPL
Binder,binding result [1],EC50 (read off the curve) [2],EC50 (read off the curve) [3],EC50 (read off the curve) [4],binding result [5],binding result [6],Kd [7],koff [7],kon [7],IC50 (read off the curve) [8],binding result [9],binding result [10],binding result [11],IC50 (read off the curve) [12]
B1,no binding (tested: 20 µg/ml),~10 nM,~3 nM,~2 nM,no binding (tested: 20 µg/ml),no binding (tested: 20 µg/ml),0.16 nM,4.5e-05 s⁻¹,256000 M⁻¹ s⁻¹,,,,,
B2,no binding (tested: 20 µg/ml),~3 nM,~0.9 nM,~0.6 nM,no binding (tested: 20 µg/ml),no binding (tested: 20 µg/ml),,,,~2 nM,,,,
B3,no binding (tested: 20 µg/ml),,~1 nM,~0.7 nM,no binding (tested: 20 µg/ml),no binding (tested: 20 µg/ml),1.2 nM,0.000452 s⁻¹,377000 M⁻¹ s⁻¹,,,,,
B4,no binding (tested: 20 µg/ml),,~1 nM,,no binding (tested: 20 µg/ml),,,,,,,,,
B5,,,,,,,,,,,no binding (tested: 20 µg/ml),no binding (tested: 20 µg/ml),no binding (tested: 20 µg/ml),
B6,no binding (tested: 20 µg/ml),~10 nM,,,no binding (tested: 20 µg/ml),no binding (tested: 20 µg/ml),0.13 nM,9.9e-06 s⁻¹,76000 M⁻¹ s⁻¹,,,,,~8 nM
B7,,,,,,,,,,,no binding (tested: 20 µg/ml),no binding (tested: 20 µg/ml),no binding (tested: 20 µg/ml),
